Assay results from US20250346646A1, “COMPOUNDS USEFUL TO TREAT METABOLIC DISORDERS” (President and Fellows of Harvard College, priority 2016, published 2025).

How the values were obtained:
[1] = tested on: diet induced obese (DIO) mice; test: Antibody treatment of obese mice on high-fat diet (fasting glucose, GTT, ITT); format: in vivo, mouse; settings: obese mice on HFD
Experimental: FIG. 9B is bar graph showing blood glucose levels (mg/dL) at week 0 (open bars) or week 4 (solid bars) in obese mice on a high-fat diet (HFD) treated with vehicle or anti-aP2 monoclonal antibodies CA33, CA13, CA15, CA23, or H3. Blood glucose levels were measured after 6 hours of day-time food withdrawal. *p<0.05, **p<0.01.
The test was performed after 2 weeks of treatment in obese mice on HFD with vehicle (diamonds) or anti-aP2 monoclonal antibodies (0.75 g/kg glucose)(CA33; squares)(CA15; triangles). *p<0.05.
FIG. 12A is a line graph showing glucose levels (mg/dL) vs. time (minutes) in a glucose tolerance test (GTT) following two weeks of selective antibody treatment using high affinity antibodies (CA13, CA15, CA23, and H3) versus vehicle control in high fat diet fed mice.
FIG. 12B is a line graph showing glucose levels (mg/dl) vs. time (minutes) in an insulin tolerance test (ITT) following three weeks of selective antibody treatment using high affinity antibodies (CA13, CA15, CA23, and H3) versus vehicle control in high fat diet fed mice.
Animal care and experimental procedures were performed with approval from animal care committees of Harvard University. Male mice (leptin-deficient (ob/ob) and diet induced obese (DIO) mice with C57BL/6J background) were purchased from The Jackson Laboratory (Bar Harbor, ME) and kept on a 12-hour light/dark cycle. […] Body weights were measured weekly in the fed state. Blood glucose levels were measured weekly after 6 hours of food withdrawal or after 16 hours overnight fast. […]
Twenty-four hours post transfection a bolus feed was added and the temperature was reduced to 32° C. and maintained for the duration of the culture period (12-14 days). […] The UV absorbance peak at A280 nm was collected during elution from the column using 0.1M sodium citrate pH 3.4 elution buffer and then neutralized to pH 7.4 by addition of 2M Tris-HCl pH 8.5. […]

glucagon/aP2 complex = glucagon/aP2 complex (Homo sapiens, UniProt P01275+P15090); test: Blitz binding to tethered aP2 in glucagon plus mAb solution; settings: biotinylated aP2 on streptavidin probes
Sequence of glucagon/aP2 complex (P15090 whole entry): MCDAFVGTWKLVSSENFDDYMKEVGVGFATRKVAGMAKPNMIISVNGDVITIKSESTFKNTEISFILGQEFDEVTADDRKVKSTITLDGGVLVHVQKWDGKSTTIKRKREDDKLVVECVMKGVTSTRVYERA
Sequence of glucagon/aP2 complex (P01275 53-81 limits assumed): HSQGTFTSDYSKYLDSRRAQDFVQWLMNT
Experimental: Binding affinity studies were performed using a Blitz instrument (Pall Life Sciences, Menlo Park, CA). Biotinylated aP2 was attached to streptavidin probes.

aP2 knockout mice = test: Glucagon response of aP2 knockout mice given aP2, with or without CA33 preincubation; format: in vivo, mouse; settings: CA33 preincubated with aP2
From the text: Mouse and rabbit-mouse hybrid monoclonal antibodies raised against the human and mouse aP2 peptides were produced and screened. […] The systemic improvement in glucose metabolism was further verified using a glucose tolerance test (GTT).

Binding to the glucagon/aP2 complex (glucagon/aP2 complex): strong binding
B1: CA33: low-affinity anti-aP2 monoclonal antibody, rabbit-mouse hybrid, produced and purified by UCB; VL Seq. ID 28, VH Seq. ID 41 (antibody, V domains shown)
VH: QSVEESGGRLVTPGTPLTLTCTVSGFSLSTYYMSWVRQAPGKGLEWIGIIYPSGSTYCASWAKGRFTISKASTTVDLKITSPTTEDTATYFCARPDNDGTSGYLSGFGLWGQGTLVTVSS
VL: DVVMTQTPASVSEPVGGTVTIKCQASEDISRYLVWYQQKPGQPPKRLIYKASTLASGVPSRFKGSGSGTDFTLTISDLECDDAATYYCQCTYGTYAGSFFYSFGGGTEVVVE
modifications: Rabbit Ab 909 VH region; Rabbit Ab 909 VL-region
Fasting blood glucose ([1]; 33 mg/kg s.c. twice weekly, week 4 vs week 0, 6 hours food withdrawal): significantly decreased
Glucose tolerance (GTT) ([1]; after 2 weeks of treatment, 0.75 g/kg glucose): significantly improved glucose tolerance
Insulin sensitivity (insulin tolerance test) ([1]; after 3 weeks of treatment): markedly improved insulin sensitivity
Glucagon responsiveness of aP2 knockout mice (aP2 knockout mice): prevents that
